Data published in patent US20230053214A1 (MACQUARIE UNIVERSITY, published 2023).
Positions count from the first letter of the chain named. In names and notes the source's numbering stands. Values belong to the binder of their own block, whether it stands above or below them.

How the values were obtained:
[1] = biological target: T1, rat PSD95 (FLAG-PSD-95), expressed in transfected cells (rat, UniProt P31016 1-724); assay: co-IP with PSD-95 from transfected cells, immunoblot
T1 construct: eGFP-PSD-95 (293T lysate) was used for microscale thermophoresis and PSD-95 internally tagged with mCherry for FLIM/FRET; not shown: FLAG tag

[2] = biological target: T2, human tau (441 amino acids), wild-type (human, UniProt P10636 1-758); assay: co-IP with V5-tagged tau from transfected cells, immunoblot
T2 construct: Expressed in transfected cells for co-IP; GST-tau (E. coli) was used for microscale thermophoresis and GST pulldown, eGFP-tau for FLIM/FRET, recombinant tau for kinase assays; also called hTau40; WT tau; not shown: V5 tag from vector pcDNA3.2/V5-DEST

[3] = biological target: T1, rat PSD95 (FLAG-PSD-95), expressed in …; assay: co-IP from transfected cells, immunoblot
Procedure: Briefly, cells were lysed in pTNN buffer (20 mM Tris pH7.4, 150 mM NaCl, 1 mM EDTA, 1 mM Na3VO4, 1 mM NaF, 1 mM glycerophosphate, 2.5 mM Na₂H₂P₂O₇, 1 mM PMSF, protease inhibitors (Complete, Roche), 1% NP-40 substitute (Sigma-Aldrich)) on ice. Lysates were cleared by centrifugation (16,000×g/10 min/4° C.). Protein concentration was determined (DC Protein Assay, BioRad) and 200 μg of lysate incubated with antibody (1:400) for 3 h on a rotator at 4° C. Equilibrated and blocked protein G-beads (Life Technologies) were incubated with lysates for 45 min on a rotator at 4° C. Beads were then washed 3 times and incubated in sample buffer for 5 min at 95° C. before SDS-PAGE. Cortical or hippocampal tissues were homogenized in RIPA buffer (20 mM Tris pH8.0, 150 mM NaCl, 1 mM EDTA, 1 mM Na3VO4, 1 mM NaF, 1 mM glycerophosphate, 2.5 mM sodium pyrophosphate, 1 mM PMSF, protease inhibitors (Complete, Roche), 1% NP-40 substitute (Sigma-Aldrich), SDS, sodium deoxycholate) and subjected to immunoprecipitation as outlined above.

T1 sequence (P31016 whole entry): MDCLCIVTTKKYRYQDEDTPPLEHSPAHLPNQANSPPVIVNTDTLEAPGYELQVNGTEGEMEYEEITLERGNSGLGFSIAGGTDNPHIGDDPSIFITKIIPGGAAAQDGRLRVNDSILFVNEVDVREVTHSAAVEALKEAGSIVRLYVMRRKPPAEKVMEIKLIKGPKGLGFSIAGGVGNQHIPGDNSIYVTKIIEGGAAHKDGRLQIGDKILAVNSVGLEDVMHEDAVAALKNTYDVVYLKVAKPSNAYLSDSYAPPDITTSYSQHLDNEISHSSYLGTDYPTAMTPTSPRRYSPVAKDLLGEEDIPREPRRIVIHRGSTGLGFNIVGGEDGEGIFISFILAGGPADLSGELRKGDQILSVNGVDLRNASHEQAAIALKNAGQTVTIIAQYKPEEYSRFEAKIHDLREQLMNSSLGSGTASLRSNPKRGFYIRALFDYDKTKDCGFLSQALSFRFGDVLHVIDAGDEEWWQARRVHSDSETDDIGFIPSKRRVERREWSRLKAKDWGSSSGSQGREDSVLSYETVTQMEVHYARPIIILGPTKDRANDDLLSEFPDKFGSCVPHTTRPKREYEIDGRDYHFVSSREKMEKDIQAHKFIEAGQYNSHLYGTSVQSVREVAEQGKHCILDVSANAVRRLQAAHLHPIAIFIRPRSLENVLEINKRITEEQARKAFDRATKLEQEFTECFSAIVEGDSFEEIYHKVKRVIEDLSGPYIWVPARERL
T2 sequence (P10636 other isoform, or with tags, fused parts or gaps): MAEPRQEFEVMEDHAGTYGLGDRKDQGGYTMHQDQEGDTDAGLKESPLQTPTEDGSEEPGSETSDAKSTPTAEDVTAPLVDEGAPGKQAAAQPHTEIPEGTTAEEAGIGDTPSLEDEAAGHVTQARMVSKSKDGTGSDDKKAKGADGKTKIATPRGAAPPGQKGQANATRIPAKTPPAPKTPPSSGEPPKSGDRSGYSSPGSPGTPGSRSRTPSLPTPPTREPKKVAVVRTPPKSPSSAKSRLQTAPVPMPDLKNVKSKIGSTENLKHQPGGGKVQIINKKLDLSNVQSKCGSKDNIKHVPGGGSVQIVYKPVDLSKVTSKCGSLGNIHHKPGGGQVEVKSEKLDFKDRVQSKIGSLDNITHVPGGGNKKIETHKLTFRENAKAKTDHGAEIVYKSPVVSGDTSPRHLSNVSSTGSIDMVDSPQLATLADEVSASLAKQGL

binding result [1]: no binding
B1: WT p38γ with deletion of the C-terminal PDZ-binding motif (ΔPm) (enzyme)
chain: MSSPPPARSGFYRQEVTKTAWEVRAVYRDLQPVGSGAYGAVCSAVDGRTGAKVAIKKLYRPFQSELFAKRAYRELRLLKHMRHENVIGLLDVFTPDETLDDFTDFYLVMPFMGTDLGKLMKHEKLGEDRIQFLVYQMLKGLRYIHAAGIIHRDLKPGNLAVNEDCELKILDFGLARQADSEMTGYVVTRWYRAPEVILNWMRYTQTVDIWSVGCIMAEMITGKTLFKGSDHLDQLKEIMKVTGTPPAEFVQRLQSDEAKNYMKGLPELEKKDFASILTNASPLAVNLLEKMLVLDAEQRVTAGEALAHPYFESLHDTEDEPQVQKYDDSFDDVDRTLDEWKRVTYKEVLSFKPPRQLGARVSK
notes: also called p38γ ΔPm; ΔPDZm; not shown: N-terminal HA-tag

binding result [1]: no binding
B2: CA p38γ with deletion of the C-terminal PDZ-binding motif (ΔPm) (enzyme)
chain: B1 chain with D179A
notes: also called p38γ^CA ΔPm; ΔPDZm; not shown: N-terminal HA-tag

binding result [2]: binds
binding result [3]: binds
B3: human wild-type p38γ (HA-tagged) (enzyme)
chain: MSSPPPARSGFYRQEVTKTAWEVRAVYRDLQPVGSGAYGAVCSAVDGRTGAKVAIKKLYRPFQSELFAKRAYRELRLLKHMRHENVIGLLDVFTPDETLDDFTDFYLVMPFMGTDLGKLMKHEKLGEDRIQFLVYQMLKGLRYIHAAGIIHRDLKPGNLAVNEDCELKILDFGLARQADSEMTGYVVTRWYRAPEVILNWMRYTQTVDIWSVGCIMAEMITGKTLFKGSDHLDQLKEIMKVTGTPPAEFVQRLQSDEAKNYMKGLPELEKKDFASILTNASPLAVNLLEKMLVLDAEQRVTAGEALAHPYFESLHDTEDEPQVQKYDDSFDDVDRTLDEWKRVTYKEVLSFKPPRQLGARVSKETPL
notes: Recombinant p38γ from bacteria was used in the in vitro kinase assays; also called p38γ WT; wild-type p38γ (WT); not shown: N-terminal HA-tag

binding result [2]: binds
binding result [3]: binds
B4: constitutive active p38γ (D179A), HA-tagged (enzyme)
chain: B3 chain with D179A
notes: also called p38γ^CA; p38γ CA; not shown: N-terminal HA-tag
